Data: patent US20240116985A1, “STAPLED PEPTIDES AND METHODS THEREOF” (priority 2020, published 2024)
Starred links: 1 amine or outer side, 2 acyl side, 3 side chain; linkers in the order of their positions; H or OH if unused. Positions of bridges follow the written chain, without caps; N, C: chain ends. Non-standard residues stand in square brackets, D forms with d. Primed or numbered codes have the meaning given here. No end group written: not given here. (CH2CMe2CO2H)TriAzDap = (S)-3-(1-(2-amino-2-carboxyethyl)-1H-1,2,3-triazol-4-yl)-2,2-dimethylpropanoic acid, CC(C)(Cc1cn(C[C@H](N[*:1])C(=O)[*:2])nn1)C(=O)[*:3]; (CMe2CO2H)TriAzDap = (S)-2-amino-3-(4-(2-carboxypropan-2-yl)-1H-1,2,3-triazol-1-yl)propanoic acid, CC(C)(C(=O)[*:3])c1cn(C[C@H](N[*:1])C(=O)[*:2])nn1; PyrS2″ = (S)-3-amino-1-((pent-4-en-1-yloxy)carbonyl)pyrrolidine-3-carboxylic acid (stapling residue), C=CCCCOC(=O)N1CC[C@@](N[*:1])(C(=O)[*:2])C1; (CH2CH2CO2H)TriAzDap = (S)-2-amino-3-(4-(2-carboxyethyl)-1H-1,2,3-triazol-1-yl)propanoic acid, O=C([C@H](Cn1cc(CCC(=O)[*:3])nn1)N[*:1])[*:2]; B5(4) = 2,2-bis(4-pentenyl)glycine = 2-amino-2-(pent-4-en-1-yl)hept-6-enoic acid (stitching residue), C=CCCCC(CCCC=C)(N[*:1])C(=O)[*:2]; B5(5) = 2,2-bis(4-pentenyl)glycine, 2-amino-2-(pent-4-en-1-yl)hept-6-enoic acid (stitching residue), C=CCCCC(CCCC=C)(N[*:1])C(=O)[*:2]; PyrS2 = (S)-3-amino-1-((pent-4-en-1-yloxy)carbonyl)pyrrolidine-3-carboxylic acid, C=CCCCOC(=O)N1CC[C@@](N[*:1])(C(=O)[*:2])C1; (3C)TriAzLys = (S)-2-amino-6-(4-propyl-1H-1,2,3-triazol-1-yl)hexanoic acid, CCCc1cn(CCCC[C@H](N[*:1])C(=O)[*:2])nn1; B5(13) = 2-amino-2-(pent-4-en-1-yl)hept-6-enoic acid (two alkene chains), C=CCCCC(CCCC=C)(N[*:1])C(=O)[*:2]; PyrS2(5) = (S)-3-amino-1-((alkenyloxy)carbonyl)pyrrolidine-3-carboxylic acid, carbamate stapling residue; 2COOHF = (S)-2-(2-amino-2-carboxyethyl)benzoic acid, O=C([C@H](Cc1ccccc1C(=O)[*:3])N[*:1])[*:2]; B5(3) = 2,2-bis(4-pentenyl)glycine (stitching residue), C=CCCCC(CCCC=C)(N[*:1])C(=O)[*:2]; Phe(3-COOH) = N[C@@H](Cc1cccc(C(=O)O)c1)C(=O)O; 2F3MeF = Cc1cccc(C[C@H](N[*:1])C(=O)[*:2])c1F; Phe(2-CF3) = N[C@@H](Cc1ccccc1C(F)(F)F)C(=O)O; Phe(2-Cl) = N[C@@H](Cc1ccccc1Cl)C(=O)O; Phe(2-OMe) = COc1ccccc1C[C@H](N)C(=O)O; 1Nal = N[C@@H](Cc1cccc2ccccc12)C(=O)O; 2Nal = N[C@@H](Cc1ccc2ccccc2c1)C(=O)O; Bta = N[C@@H](Cc1csc2ccccc12)C(=O)O; αAllylPro = C=CC[C@@]1(C(=O)O)CCCN1; tBuAla = CC(C)(C)C[C@H](N)C(=O)O; 2Thi = N[C@@H](Cc1cccs1)C(=O)O; 3Thi = N[C@@H](Cc1ccsc1)C(=O)O; S8 = C=CCCCCCC[C@](C)(N)C(=O)O; Thr(ol) = C[C@@H](O)[C@H](N)CO

Experiments:
Bcat-Halo [1] = target: Bcat-Halo (UniProt P35222); experiment: NanoBRET in HEK293 cells, Bcat-Halo / TCF4-Luc; absolute IC50
[2] = target: full-length beta-Catenin (Uniprot ID P35222) (Homo sapiens (Human)) (UniProt P35222); experiment: fluorescence polarization competition; 10 nM full-length beta-catenin, 10 nM 5FAM-TCF4(10-53) probe
Target sequence in this assay (P35222 2-781 limits assumed): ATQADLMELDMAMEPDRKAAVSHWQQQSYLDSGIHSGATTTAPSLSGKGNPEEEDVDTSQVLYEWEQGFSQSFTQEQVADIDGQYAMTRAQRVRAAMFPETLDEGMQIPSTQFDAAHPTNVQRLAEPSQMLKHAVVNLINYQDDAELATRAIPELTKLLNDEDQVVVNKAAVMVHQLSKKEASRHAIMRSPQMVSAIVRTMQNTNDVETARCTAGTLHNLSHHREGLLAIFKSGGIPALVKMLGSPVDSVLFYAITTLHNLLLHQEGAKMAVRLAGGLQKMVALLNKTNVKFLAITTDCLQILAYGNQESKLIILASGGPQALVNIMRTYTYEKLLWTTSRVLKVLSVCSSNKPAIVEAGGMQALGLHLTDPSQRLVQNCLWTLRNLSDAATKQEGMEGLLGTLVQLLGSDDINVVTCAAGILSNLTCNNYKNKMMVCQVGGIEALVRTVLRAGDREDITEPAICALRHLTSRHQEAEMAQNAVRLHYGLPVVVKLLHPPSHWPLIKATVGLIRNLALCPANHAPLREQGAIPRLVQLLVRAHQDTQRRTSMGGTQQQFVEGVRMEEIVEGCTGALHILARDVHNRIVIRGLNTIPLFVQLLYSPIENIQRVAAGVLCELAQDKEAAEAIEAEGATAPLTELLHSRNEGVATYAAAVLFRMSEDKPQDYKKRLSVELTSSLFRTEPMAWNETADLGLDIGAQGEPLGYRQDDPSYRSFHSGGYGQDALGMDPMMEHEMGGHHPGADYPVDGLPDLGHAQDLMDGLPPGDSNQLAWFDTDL

[3] = target: full-length beta-Catenin (Uniprot ID P35222) (Homo sapiens (Human)) (UniProt P35222); experiment: fluorescence polarization competition against 5FAM-TCF4 10-53 on full-length beta-catenin
Target sequence in this assay (P35222 whole entry, one chain of several): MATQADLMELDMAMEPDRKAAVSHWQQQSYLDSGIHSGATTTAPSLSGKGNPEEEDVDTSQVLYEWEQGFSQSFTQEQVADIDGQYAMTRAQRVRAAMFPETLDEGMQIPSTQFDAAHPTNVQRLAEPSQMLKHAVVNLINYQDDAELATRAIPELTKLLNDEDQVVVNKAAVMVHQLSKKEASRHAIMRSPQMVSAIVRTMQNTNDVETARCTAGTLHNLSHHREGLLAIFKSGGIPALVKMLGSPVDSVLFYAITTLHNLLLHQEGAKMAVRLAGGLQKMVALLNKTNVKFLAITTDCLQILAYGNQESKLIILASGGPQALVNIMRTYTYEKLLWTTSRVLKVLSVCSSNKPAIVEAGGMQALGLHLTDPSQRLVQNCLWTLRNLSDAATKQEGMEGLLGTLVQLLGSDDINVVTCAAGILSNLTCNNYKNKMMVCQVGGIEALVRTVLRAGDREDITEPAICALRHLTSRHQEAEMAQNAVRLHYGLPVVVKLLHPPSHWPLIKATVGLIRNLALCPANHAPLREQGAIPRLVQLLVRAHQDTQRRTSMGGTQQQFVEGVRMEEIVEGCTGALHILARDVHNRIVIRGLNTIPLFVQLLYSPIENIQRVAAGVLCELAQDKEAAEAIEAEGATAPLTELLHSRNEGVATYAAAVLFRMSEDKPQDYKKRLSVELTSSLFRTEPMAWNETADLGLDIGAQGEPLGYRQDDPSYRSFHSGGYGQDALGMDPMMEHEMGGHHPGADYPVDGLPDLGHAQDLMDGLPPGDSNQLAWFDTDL

Bcat-Halo [4] = target: Bcat-Halo (UniProt P35222); experiment: NanoBRET Abs IC50, HEK293 cells, B-cat-Halo / TCF4-Luc engagement
[5] = target: B-cat-Halo (beta-catenin HaloTag NanoBRET construct expressed in HEK293 cells) (UniProt P35222); experiment: NanoBRET in HEK293 cells, Bcat-Halo + TCF4-Luc (competitor partner TCF4)
[6] = target: full-length beta-Catenin (Uniprot ID P35222) (Homo sapiens (Human)) (UniProt P35222); experiment: fluorescence polarization competition: peptide titrated against 10 nM full-length beta-catenin + 10 nM 5FAM-TCF4(10-53) probe
Target sequence in this assay (P35222 2-781 limits assumed): as the sequence (P35222 2-781 limits assumed) above

[7] = target: full-length beta-Catenin (Uniprot ID P35222) (Homo sapiens (Human)) (UniProt P35222); experiment: fluorescence polarization competition; peptide displaces 5FAM-TCF4(10-53) from full-length beta-catenin
Target sequence in this assay (P35222 2-781 limits assumed): as above

[8] = target: B-cat-Halo (beta-catenin HaloTag NanoBRET construct expressed in HEK293 cells) (UniProt P35222); experiment: NanoBRET in HEK293 cells, Bcat-Halo + TCF4-Luc, peptide at 10 uM
[9] = target: full-length beta-Catenin (Uniprot ID P35222) (Homo sapiens (Human)) (UniProt P35222); experiment: fluorescence polarization competition; 10 nM full-length beta-catenin with 10 nM 5FAM-TCF4(10-53) probe as competitor
Target sequence in this assay (P35222 2-781 limits assumed): as above

[10] = target: B-cat-Halo (NanoBRET construct) (UniProt P35222); experiment: NanoBRET Abs IC50; Bcat-Halo/TCF4-Luc in HEK293 cells, competitor TCF4-Luc
[11] = target: full-length beta-Catenin (Uniprot ID P35222) (Homo sapiens (Human)) (UniProt P35222); experiment: fluorescence polarization competition; full-length beta-catenin, 5FAM-TCF4(10-53) probe
Target sequence in this assay (P35222 whole entry, one chain of several): as the sequence (P35222 whole entry, one chain of several) above

[12] = target: full-length beta-Catenin (Uniprot ID P35222) (Homo sapiens (Human)) (UniProt P35222); experiment: AlphaScreen competition vs biotin-TCF4(10-53) on full-length beta-catenin
Target sequence in this assay (P35222 whole entry, one chain of several): as above

[13] = target: full-length beta-Catenin (Uniprot ID P35222) (Homo sapiens (Human)) (UniProt P35222); experiment: fluorescence polarization competition; full-length beta-catenin, 5FAM-TCF4(10-53) probe as competitor
Target sequence in this assay (P35222 2-781 limits assumed): as the sequence (P35222 2-781 limits assumed) above

[14] = target: B-cat-Halo (beta-catenin HaloTag NanoBRET construct expressed in HEK293 cells) (UniProt P35222); experiment: NanoBRET Abs IC50 in HEK293 cells; Bcat-Halo, TCF4-Luc as competitor
[15] = target: full-length beta-Catenin (Uniprot ID P35222) (Homo sapiens (Human)) (UniProt P35222); experiment: FP competition: displacement of 5FAM-TCF4(10-53) from full-length beta-catenin
Target sequence in this assay (P35222 whole entry, one chain of several): as the sequence (P35222 whole entry, one chain of several) above

Bcat-Halo [16] = target: Bcat-Halo (UniProt P35222); experiment: NanoBRET Abs IC50, HEK293 cells; B-cat-Halo/TCF4-Luc engagement, competitor TCF4-Luc
[17] = target: full-length beta-Catenin (Uniprot ID P35222) (Homo sapiens (Human)) (UniProt P35222); experiment: FP competition; full-length beta-catenin, competitor 5FAM-TCF4(10-53)
Target sequence in this assay (P35222 whole entry, one chain of several): as above

Bcat-Halo [18] = target: Bcat-Halo (UniProt P35222); experiment: NanoBRET absolute IC50, HEK293 cells, Bcat-Halo/TCF4-Luc engagement
[19] = target: full-length beta-Catenin (Uniprot ID P35222) (Homo sapiens (Human)) (UniProt P35222); experiment: FP competition, full-length beta-catenin, competitor probe 5FAM-TCF4 10-53
Target sequence in this assay (P35222 2-781 limits assumed): as the sequence (P35222 2-781 limits assumed) above

[20] = target: full-length beta-Catenin (Uniprot ID P35222) (Homo sapiens (Human)) (UniProt P35222); experiment: fluorescence polarization competition; full-length beta-catenin with 5FAM-TCF4(10-53) probe as competitor

Chain of Bcat-Halo (P35222 whole entry): as the sequence (P35222 whole entry, one chain of several) above
Chain of B-cat-Halo (beta-catenin HaloTag NanoBRET construct expressed in HEK293 cells) (P35222 whole entry): as the sequence (P35222 whole entry, one chain of several) above
Chain of B-cat-Halo (NanoBRET construct) (P35222 whole entry): as the sequence (P35222 whole entry, one chain of several) above

Ac-[αAllylPro]D[tBuAla][B5(5)]D[2COOHF]AAFF[PyrS2″][2F3MeF][Bta]S-NH2 (staple 1-4, 4-11) [I-1659]
IC50 (Bcat-Halo [1]): 11.4 µM
IC50 [2]: 108 nM

Ac-[αAllylPro]D[tBuAla][B5(4)]DDAAFL[PyrS2″][3Thi][Bta][(3C)TriAzLys]-NH2 (staple 1-4, 4-11) [I-2375]
IC50 [3]: 5 nM
IC50 (Bcat-Halo [4]): 13.5 µM

Ac-[αAllylPro]D[tBuAla][B5(5)]DDAAFN[PyrS2][Phe(2-Cl)][Bta]H-NH2 (staple 1-4, 4-11) [I-784]
IC50 [5]: 12.1 µM
EC50 [6]: 6 nM
IC50 [7]: 6 nM
NanoBRET % inh @ 10 uM [8]: 35.1%

Ac-[αAllylPro]D[tBuAla][B5(4)]D[(CH2CMe2CO2H)TriAzDap]QAFL[PyrS2″][Phe(2-CF3)][Bta]A-NH2 (staple 1-4, 4-11) [I-2368]
IC50 [3]: 5 nM
IC50 (Bcat-Halo [4]): 5 µM

Ac-[αAllylPro]D[tBuAla][B5(3)]DDAAFF[PyrS2″][3Thi][Bta]Q-NH2 (staple 1-4, 4-11) [I-807]
IC50 [5]: 5.3 µM
EC50 [6]: 5 nM
IC50 [9]: 5 nM

Ac-[αAllylPro]D[tBuAla][B5(5)]D[2COOHF]AAFF[PyrS2″][3Thi][Bta]S-NH2 (staple 1-4, 4-11) [I-1665]
IC50 [10]: 9.7 µM
IC50 [11]: 17 nM

Ac-[αAllylPro]DA[B5(4)]D[2Nal]AAFQ[S8]F[Bta]A-NH2 (staple 1-4, 4-11) [I-296]
EC50 [12]: 1.91 µM

Ac-[αAllylPro]DA[B5(4)]D[2Nal]AAFV[S8]F[Bta]Q-NH2 (staple 1-4, 4-11) [I-297]
EC50 [12]: 5.81 µM

Ac-[αAllylPro]D[tBuAla][B5(5)]D[2COOHF]AAFF[PyrS2(5)][3Thi][Bta][Thr(ol)] (staple 1-4, 4-11; also: staple isomer, later-eluting HPLC peak) [I-1669]
IC50 [10]: 11.8 µM
IC50 [11]: 30 nM

Ac-[αAllylPro]D[tBuAla][B5(5)]DDAAFT[PyrS2″][3Thi][1Nal]Q-NH2 (staple 1-4, 4-11) [I-1232]
IC50 [13]: 31 nM
IC50 [14]: 43.3 µM
EC50 [15]: 31 nM

Ac-[αAllylPro]D[tBuAla][B5(5)]D[Phe(3-COOH)]AAFL[PyrS2″][Phe(2-CF3)][Bta]QLV-NH2 (staple 1-4, 4-11) [I-2379]
IC50 [3]: 246 nM
IC50 (Bcat-Halo [4]): 5 µM

[αAllylPro]D[tBuAla][B5(4)]DDAAFF[PyrS2″][2Thi][Bta]Q-NH2 (staple 1-4, 4-11) [I-1345]
IC50 (Bcat-Halo [16]): 4.7 µM
EC50 [17]: 15 nM
IC50 (Bcat-Halo [18]): 4.7 µM
IC50 [19]: 15 nM

Ac-[αAllylPro]D[tBuAla][B5(4)]D[(CMe2CO2H)TriAzDap]QAFL[PyrS2″][Phe(2-CF3)][Bta]A-NH2 (staple 1-4, 4-11) [I-2369]
IC50 [3]: 14 nM
IC50 (Bcat-Halo [4]): 9.5 µM

Ac-[αAllylPro]D[tBuAla][B5(5)]D[2COOHF]AAFF[PyrS2″][Phe(2-Cl)][Bta]Q-NH2 (staple 1-4, 4-11) [I-1657]
IC50 (Bcat-Halo [1]): 11 µM
IC50 [2]: 36 nM

Ac-[αAllylPro]D[tBuAla][B5(5)]D[2COOHF]AAFF[PyrS2″][3Thi][Bta][Thr(ol)] (staple 1-4, 4-11; also: staple isomer, earlier-eluting HPLC peak) [I-1668]
IC50 [10]: 16.4 µM
IC50 [11]: 29 nM

Ac-[αAllylPro]D[tBuAla][B5(3)]DEAAFN[PyrS2][3Thi][Bta]-NH2 (staple 1-4, 4-11) [I-786]
IC50 [5]: 17.1 µM
EC50 [6]: 8 nM
IC50 [7]: 8 nM

Ac-[αAllylPro]D[tBuAla][B5(4)]D[(CH2CH2CO2H)TriAzDap]QAFL[PyrS2″][Phe(2-CF3)][Bta]A-NH2 (staple 1-4, 4-11) [I-2367]
IC50 [3]: 7 nM
IC50 (Bcat-Halo [4]): 6.2 µM

Ac-[αAllylPro]D[tBuAla][B5(4)]DDAAF[Phe(2-CF3)][PyrS2][3Thi][Bta]Q-NH2 (staple 1-4, 4-11) [I-1363]
IC50 (Bcat-Halo [16]): 5.5 µM
IC50 [20]: 9 nM
EC50 [17]: 9 nM

[αAllylPro]D[tBuAla][B5(4)]DDAAFS[PyrS2″]F[Bta]S-NH2 (staple 1-4, 4-11) [I-1357]
IC50 (Bcat-Halo [16]): 33.6 µM
IC50 [20]: 10 nM
EC50 [17]: 10 nM

Ac-[αAllylPro]D[tBuAla][B5(5)]D[2COOHF]AAFF[PyrS2″][3Thi][Bta]S-NH2 (staple 1-4, 4-11) [I-1664]
IC50 [10]: 8 µM
IC50 [11]: 22 nM

Ac-[αAllylPro]D[tBuAla][B5(5)]D[2COOHF]AAFF[PyrS2″][Phe(2-Cl)][Bta]S-NH2 (staple 1-4, 4-11) [I-1662]
IC50 [10]: 12 µM
IC50 [11]: 69 nM

Ac-[αAllylPro]D[tBuAla][B5(13)]DDAAFN[PyrS2][Phe(2-OMe)][Bta]H-NH2 (staple 1-4, 4-11) [I-781]
IC50 [5]: 11.6 µM
EC50 [6]: 5 nM
IC50 [7]: 5 nM
NanoBRET % inh @ 10 uM [8]: 24%

[αAllylPro]D[tBuAla][B5(4)]DDAAFS[PyrS2″]F[Bta]S-NH2 (staple 1-4, 4-11) [I-1356]
IC50 (Bcat-Halo [16]): > 20 µM
IC50 [20]: 23 nM
EC50 [17]: 23 nM

Ac-[αAllylPro]DA[B5(4)]D[2Nal]AAFS[S8]F[Bta]Q-NH2 (staple 1-4, 4-11) [I-298]
EC50 [12]: 3.86 µM
